Substrate in data set [1]: NCCCC[C@H](N)C(=O)O
Put plainly: purified protein. Conditions: PMF-driven: ΔΨ -84 mV, ZΔpH -84 mV, external pH 6.0, internal pH 7.3, 30 °C, labelled compound.

Substrate in data set [2]: NCCCC[C@H](N)C(=O)O
Kind of data set: purified protein. The data set is classed as biochemical, Saccharomyces cerevisiae. Conditions: PMF-driven: ΔΨ -84 mV, ZΔpH -84 mV, external pH 6.0, internal pH 7.3, 30 °C, labelled compound, high-affinity component (out-to-in) of hyperbola plus linear fit.

Substrate in data set [3]: NCCCC[C@H](N)C(=O)O
Put plainly: cells, lysate or membranes. The data set is classed as cell-based, Saccharomyces cerevisiae. Conditions: whole cells 22∆6AAL, 100 mM potassium phosphate, 10 mM glucose, pH 6.0, 30 °C, labelled compound.

The results in this text go back to publication PMC4993999, “Asymmetry in inward- and outward-affinity constant of transport explain unidirectional lysine flux in Saccharomyces cerevisiae” (Scientific Reports, 2016).

B1: LysP (Salmonella enterica subsp. enterica serovar Typhimurium str. LT2) (protein)
chain: MGSKTKTTEAPALRRELKARHLTMIAIGGSIGTGLFVASGATISQAGPGGALFSYILIGLMVYFLMTSLGELAAYMPVSGSFATYGQNYVEEGFGFALGWNYWYNWAVTIAVDLVAAQLVMGWWFPDTPGWIWSALFLCVIFLLNYISVRGFGEAEYWFSLIKVATVIIFIIVGVAMIIGIFKGVEPVGWSNWTTGDAPFAGGFAAMIGVAMIVGFSFQGTELIGIAAGESENPEKNIPRAVRQVFWRILLFYVFAILIISLIIPYTDPNLLRNDVKDISVSPFTLVFQHAGLLSAAAIMNAVILTAVLSAGNSGMYASTRMLYTLACDGKAPRIFAKLSRGGVPRNALYATTVIAGLCFLTSMFGNQTVYLWLLNTSGMTGFIAWLGIAISHYRFRRGYVLQGYDVNDLPYRSGFFPLGPIFAFVLCLIITLGQNYEAFLKDTIDWGGVAATYIGIPLFLLIWFGYKLIKGTHFVRYSEMHFPERVKK
On to B1, for which, in “purified protein [1]”, the Km turned out to be 1.5 ± 0.2 µM.

B2: Lyp1-GFP (Lyp1-TEV-GFP-His10) (Saccharomyces cerevisiae S288C) (protein)
chain: MGRFSNIITSNKWDEKQNNIGEQSMQELPEDQIEHEMEAIDPSNKTTPYSIDEKQYNTKKKHGSLQGGAIADVNSITNSLTRLQVVSHETDINEDEEEAHYEDKHVKRALKQRHIGMIALGGTIGTGLFVGISTPLSNAGPVGSLIAYIFMGTIVYFVTQSLGEMATFIPVTSSITVFSKRFLSPAFGVSNGYMYWFNWAITYAVEVSVIGQVIEYWTDKVPLAAWIAIFWVIITLMNFFPVKVYGEFEFWVASVKVLAIMGYLIYALIIVCGGSHQGPIGFRYWRNPGAWGPGIISSDKSEGRFLGWVSSLINAAFTYQGTELVGITAGEAANPRKTVPRAINKVVFRIVLFYIMSLFFIGLLVPYNDSRLSASSAVIASSPFVISIQNAGTYALPDIFNAVVLITVVSAANSNVYVGSRVLYSLARTGNAPKQFGYVTRQGVPYLGVVCTAALGLLAFLVVNNNANTAFNWLINISTLAGLCAWLFISLAHIRFMQALKHRGISRDDLPFKAKLMPYGAYYAAFFVTVIIFIQGFQAFCPFKVSEFFTSYISLILLAVVFIGCQIYYKCRFIWKLEDIDIDSDRREIEAIIWEDDEPKNLWEKFWAAVA
notes: full length, C-terminal TEV-GFP-His10 kept; expressed in Pichia pastoris SMD1163; purified and reconstituted in yeast/E. coli lipid vesicles
Regarding B2, the Km in “purified protein [2]” was 20 ± 14 µM.

B3: Lyp1-YPet (Saccharomyces cerevisiae S288C) (protein)
chain: B2 chain
notes: full length, C-terminal TEV-YPet-His8 kept; expressed from plasmid under native LYP1 promoter in S. cerevisiae 22∆6AAL
For B3, in data set [3], the Km is 10 ± 0.8 µM.
